# From paper PMC2967539
# Target: human dipeptidyl peptidase IV (human) (UniProt P27487)
# Sequence of UniProt P27487 (P27487 whole entry): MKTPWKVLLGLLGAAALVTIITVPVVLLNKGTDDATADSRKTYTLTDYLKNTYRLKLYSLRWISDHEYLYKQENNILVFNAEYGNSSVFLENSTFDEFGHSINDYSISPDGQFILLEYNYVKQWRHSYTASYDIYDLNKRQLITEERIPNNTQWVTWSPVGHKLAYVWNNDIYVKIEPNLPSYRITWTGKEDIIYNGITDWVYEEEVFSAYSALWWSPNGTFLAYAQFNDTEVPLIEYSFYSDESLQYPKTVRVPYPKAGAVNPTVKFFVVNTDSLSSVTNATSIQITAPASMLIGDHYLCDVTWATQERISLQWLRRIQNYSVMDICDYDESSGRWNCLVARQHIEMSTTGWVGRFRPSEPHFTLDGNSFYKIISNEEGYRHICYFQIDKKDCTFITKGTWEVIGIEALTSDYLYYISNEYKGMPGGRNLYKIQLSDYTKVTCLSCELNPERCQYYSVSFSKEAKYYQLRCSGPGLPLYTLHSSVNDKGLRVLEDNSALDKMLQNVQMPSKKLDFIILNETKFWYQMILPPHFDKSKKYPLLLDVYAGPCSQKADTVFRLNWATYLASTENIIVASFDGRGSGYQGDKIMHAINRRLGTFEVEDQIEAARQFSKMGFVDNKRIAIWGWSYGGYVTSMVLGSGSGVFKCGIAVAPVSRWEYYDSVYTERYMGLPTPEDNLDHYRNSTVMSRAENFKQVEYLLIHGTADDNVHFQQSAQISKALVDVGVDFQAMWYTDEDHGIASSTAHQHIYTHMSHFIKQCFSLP
substance,measurement,value
Tat-1-86 protein (Immuno-Diagnostics) (from UniProt P04610 1-86) (natural protein),"cleavage of GLP1 (31.25 uM) by purified DPPIV (16 nM) in the presence of 1 uM Tat-1-86, MALDI-TOF mass spectrometry, after 5 min at 37 °C (all GLP1 cleaved within 5 min without Tat)",40%
